Among the data in article PMC11369174, “Proteome-scale characterisation of motif-based interactome rewiring by disease mutations” (Molecular Systems Biology, 2024) are Kd, KD, minor pocket and KD, major pocket values, retold here.

One assay addresses GABARAPL1 ATG8 (human). The experiment in a line: fluorescence polarisation; displacement: unlabelled peptide titrated onto a complex of FITC-labelled peptide (10 nM) and protein domain (1-2x KD); 50 mM sodium phosphate buffer pH 7.4 (CASK: plus 100 mM NaCl); KD calculated from IC50; technical triplets.
The next assay has as its target MAP1LC3A ATG8 (human). The assay is described as above.
For a further assay, the target named is USP7 MATH/ TRAF (human). The description is as above.
Assay [1] has as its target importin subunit α-3 (KPNA4) ARM domain (human). The experiment in a line: fluorescence polarisation; displacement as a1, with a FITC-labelled probe sampling the minor pocket of the KPNA4 ARM domain. (Fluorescence polarisation rises when a labelled molecule tumbles more slowly, as on binding a larger partner.)
For assay [2] the target is unchanged. Briefly: fluorescence polarisation; displacement as a1, with a FITC-labelled probe sampling the major pocket of the ARM domain (KPNA4, KPNA7).
Assay [3] has as its target E3 ubiquitin-protein ligase NEDD4 (NEDD4) WW2 domain, GST-tagged (human). The experiment in a line: fluorescence polarisation; displacement: unlabelled peptide titrated onto a complex of FITC-labelled peptide (10 nM) and protein domain (1-2x KD); 50 mM sodium phosphate buffer pH 7.4 (CASK: plus 100 mM NaCl); KD calculated from IC50; technical triplets.
The next assay has as its target FITC-STK11_mut. The experiment in a line: fluorescence polarisation; saturation binding: dilution series of the protein domain added to 10 nM FITC-labelled peptide; 50 mM sodium phosphate pH 7.4, 0.05% Tween (protein dialysed in 50 mM sodium phosphate with 1 mM DTT; CASK kinase domain with 100 mM NaCl in addition); quadratic fit; technical triplets.

Chain of E3 ubiquitin-protein ligase NEDD4 (NEDD4) WW2 domain, GST-tagged (human) (P46934 whole entry, the tested form may be a part): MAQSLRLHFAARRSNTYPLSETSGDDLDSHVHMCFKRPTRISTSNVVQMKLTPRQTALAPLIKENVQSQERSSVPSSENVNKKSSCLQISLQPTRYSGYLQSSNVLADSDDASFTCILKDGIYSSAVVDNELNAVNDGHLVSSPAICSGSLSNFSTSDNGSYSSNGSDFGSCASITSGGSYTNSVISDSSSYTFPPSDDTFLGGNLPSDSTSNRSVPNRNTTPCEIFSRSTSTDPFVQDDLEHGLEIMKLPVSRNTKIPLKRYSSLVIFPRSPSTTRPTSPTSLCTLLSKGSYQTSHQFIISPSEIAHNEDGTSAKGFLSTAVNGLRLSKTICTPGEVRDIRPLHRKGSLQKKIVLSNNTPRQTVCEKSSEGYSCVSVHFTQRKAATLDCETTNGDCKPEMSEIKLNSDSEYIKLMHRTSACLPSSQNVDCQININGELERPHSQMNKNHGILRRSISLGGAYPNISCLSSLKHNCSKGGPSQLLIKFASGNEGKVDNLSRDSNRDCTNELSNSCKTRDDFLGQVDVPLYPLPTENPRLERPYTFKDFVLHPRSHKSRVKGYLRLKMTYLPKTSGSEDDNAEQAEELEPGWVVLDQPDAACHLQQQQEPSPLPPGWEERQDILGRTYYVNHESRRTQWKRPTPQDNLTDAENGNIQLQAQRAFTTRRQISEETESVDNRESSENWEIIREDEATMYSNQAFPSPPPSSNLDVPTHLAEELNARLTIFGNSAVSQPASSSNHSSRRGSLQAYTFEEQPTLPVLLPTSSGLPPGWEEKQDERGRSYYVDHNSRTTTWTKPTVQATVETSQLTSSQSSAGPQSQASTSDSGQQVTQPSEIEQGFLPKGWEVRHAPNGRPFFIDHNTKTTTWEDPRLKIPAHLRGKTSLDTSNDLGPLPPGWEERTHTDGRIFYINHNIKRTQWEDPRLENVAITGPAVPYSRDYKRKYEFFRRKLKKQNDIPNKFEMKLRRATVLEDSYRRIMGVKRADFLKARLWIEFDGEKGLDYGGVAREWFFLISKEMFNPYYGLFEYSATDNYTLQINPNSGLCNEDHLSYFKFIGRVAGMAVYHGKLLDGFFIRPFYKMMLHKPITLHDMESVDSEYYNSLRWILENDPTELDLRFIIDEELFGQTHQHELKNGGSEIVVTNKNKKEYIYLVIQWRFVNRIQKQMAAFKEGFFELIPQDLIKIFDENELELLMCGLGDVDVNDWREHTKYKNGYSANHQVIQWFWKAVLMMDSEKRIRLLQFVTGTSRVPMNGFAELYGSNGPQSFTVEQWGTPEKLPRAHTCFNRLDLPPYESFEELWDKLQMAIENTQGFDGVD
Chain of importin subunit α-3 (KPNA4) ARM domain (human) (O00629 whole entry, the tested form may be a part): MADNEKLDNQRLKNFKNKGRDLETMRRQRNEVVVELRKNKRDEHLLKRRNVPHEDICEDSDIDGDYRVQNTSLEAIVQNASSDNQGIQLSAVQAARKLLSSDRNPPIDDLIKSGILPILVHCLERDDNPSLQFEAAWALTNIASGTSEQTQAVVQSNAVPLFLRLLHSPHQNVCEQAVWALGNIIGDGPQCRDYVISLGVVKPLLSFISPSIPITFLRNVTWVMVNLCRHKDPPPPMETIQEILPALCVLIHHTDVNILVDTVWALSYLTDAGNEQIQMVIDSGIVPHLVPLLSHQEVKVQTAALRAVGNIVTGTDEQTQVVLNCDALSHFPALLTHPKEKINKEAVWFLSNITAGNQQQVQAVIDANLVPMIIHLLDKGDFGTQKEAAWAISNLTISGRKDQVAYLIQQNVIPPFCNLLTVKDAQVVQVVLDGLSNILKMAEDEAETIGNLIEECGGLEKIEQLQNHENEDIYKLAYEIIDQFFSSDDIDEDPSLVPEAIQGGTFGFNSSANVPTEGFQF

As for DKDEWQFLDQNEDAFE [BUB1_(486-501) S492F peptide], in the assay with GABARAPL1 ATG8 (human), the Kd is less than 0.3 µM.
Turning to QTKWEPLQQVDTSTRT [KRT1 209-224 L214P peptide], the Kd with MAP1LC3A ATG8 (human) is 580 µM.
As to YISSSSTSTMPNSSKSS [CHK2 38-53 Q51K peptide], the Kd in the assay with USP7 MATH/ TRAF (human) was 4.7 µM.
In the case of YISSSSTSTMPNSSQSS [CHK2 38-53 wild-type peptide], the Kd with USP7 MATH/ TRAF (human) was 3.1 µM.
Turning to QTKWELLQQVDTSTRT [KRT1 209-224 wild-type peptide], in the assay with MAP1LC3A ATG8 (human), the Kd is 55 µM.
PELWVAHRTAQHLSAT [ZNF526_(152-167) K160T peptide] came in with a KD, minor pocket in assay [1] of 395 µM.
On to YLLDGPPNPERAKLSS [CREBBP 5-19 K13E peptide], for which the KD, major pocket in assay [2] stood at 860 µM.
On to PIPGTRPPNYDSLRLQ [SCNN1B_(611-626) P616R peptide], for which the Kd in assay [3] was 80 µM.
As to DKDEWQSLDQNEDAFE [BUB1_(486-501) wild-type peptide], the Kd in the assay with GABARAPL1 ATG8 (human) was 5.5 µM.

B1: ADP-ribosylation factor-binding protein GGA1 (GGA1) VHS domain (domain or fragment)
chain: ATNPLNKELDWASINGFCEQLNEDFEGPPLATRLLAHKIQSPQEWEAIQALTVLETCMKSCGKRFHDEVGKFRFLNELIKVVSPKYLGSRTSEKVKNKILELLYSWTVGLPEEVKIAEAYQMLKKQGIVKS
Turning to B1, the Kd in the assay with FITC-STK11_mut was found to be 14.1 µM.
Turning to PIPGTPPRNYDSLRLQ [SCNN1B_(611-626) P618R peptide], the Kd in assay [3] was 603 µM.
The same measure, in the same setting: the value for PIPGTPPPNYDSLRLQ [SCNN1B_(611-626) wild-type peptide] was 39 µM.

What is called Kd is a measure of binding affinity in units of concentration.
